Results on 2 substances are retold here after article PMC8371249.

The target of assay [1] is apo-SufR (clusterless Mtb SufR, Rv1460) (Mycobacterium tuberculosis). Description: SEC. (In general: In gel filtration, larger molecules generally elute earlier.)
In assay [2] the target is holo-SufR (Mtb SufR, Rv1460, with its 4Fe–4S cluster) (Mycobacterium tuberculosis). Description: SEC.

Regarding “apo-SufR (clusterless Mtb SufR, Rv1460) (natural protein)”, the stoichiometry N – broadly, a count of units in the complex or per binding partner – in assay [1] turned out to be 2.

Take “holo-SufR (Mtb SufR, Rv1460, with its 4Fe–4S cluster) (natural protein)”: the stoichiometry N in assay [2] turned out to be 2.
